Assay results published in US20150098955A1 (VIELA BIO, published 2015).

Tests used:
[1] = molecular target: T1, Murine CD40L (form not stated) (murine, UniProt P27548 112-260, limits assumed); assay: biosensor competition: inhibition of murine CD40L binding to immobilized murine CD40 receptor
T1 construct: also called MuCD40L
T1 sequence (looked up): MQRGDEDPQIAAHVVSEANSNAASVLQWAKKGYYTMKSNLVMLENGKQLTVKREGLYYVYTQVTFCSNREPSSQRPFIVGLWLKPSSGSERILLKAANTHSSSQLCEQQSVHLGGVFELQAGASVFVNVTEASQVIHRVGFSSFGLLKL

[2] = molecular target: T1, Murine CD40L (form not stated); assay: method not stated (figure legend)
[3] = molecular target: Murine CD40L on cells (D10.G4 / D10G4.1 cells; activated murine T cells) (murine) (UniProt P27548); assay: cell-based or functional assay
[4] = molecular target: Murine MegaCD40L (Axxora, cat. ALX522120) (murine) (UniProt P27548); assay: cell-based or functional assay

B1: Clone M13 (murine CD40L-specific Tn3 scaffold) (designed binder)
chain: IEVKDVTDTTALITWHDAFGYDFGCELTYGIKDVPGDRTTIDLPDHFHNYSIGNLKPDTEYEVSLICANDHGFDSNPAKETFTT
notes: also called monovalent M13
B1 gave an IC50 [1] of 71 nM.

B2: Clone M31 (affinity optimized variant of M13, murine CD40L-specific) (designed binder)
chain: IEVKDVTDTTALITWHDPSGYDFWCELTYGIKDVPGDRTTIDLPDHFHNYSIGNLKPDTEYEVSLICANDHGFDSYPAKETFTT
For B2, the “fold affinity improvement over M13” value [2] was roughly 20 fold, the IC50, inhibition of CD86 up regulation on CD19+ B cells (PBMC stimulated with D10.G4 cells) [3] was 1.5 nM and the fold increase in potency in the PBMC assay over M13 [3] was 20 fold. The IC50, neutralization of murine CD40L-induced NFκB activity (luciferase reporter cells) [4] was 1.6 nM.
